Results: the RNAGym collection of RNA variant scans (doi:10.1073/pnas.2313332121)
Fewer inactive variants are shown than the library holds.

B1: TPR 5TU (parent)
chain: GGAUCUUCUCGAUCUAACAAAAAAGACAAAUCUGCCACAAAGCUUGAGAGCAUCUUCGGAUGCAGAGGCGGCAGCCUUCGGUGGCGCGAUAGCGCCAACGUUCUCAACUAUGACACGCAAAACGCGUGCUCCGUUGAAUGGAGUUUAUCAUG

Variants of: B1
Experiment: polymerase ribozyme fitness, log enrichment relative to wild type (log ratio); higher = more active; in vitro selection for triplet polymerase activity
Procedure, shortened: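 PCR was used to build mutant libraries for each subunit of a heterodimeric triplet polymerase ribozyme, which were then transcribed. A single in vitro selection round, in triplicate, used a frozen incubation at −7 °C and recovered extended constructs by gel excision, streptavidin beads and RT-PCR. Fitness is the logarithm of genotype enrichment relative to wild-type enrichment, averaged over replicates with inverse-variance weights. The logarithm is base 2, and after Illumina sequencing only genotypes with ≥10 input reads and ≥1 read per output were kept.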

Variant | polymerase ribozyme fitness (log ratio)
A150U | 1.3
A150C | -2.71
A150G | -0.734
A142C U144A U148G | ≤ -4.2
G141A | 0.689
G141U | 1.61
G141C | -0.0848
U144G U145A | 0.571
A150C G152A | -3
G141U A142C | -3.58
G140U U146C | -3.33
G140U U146G | -3.88
U146G A150C | ≤ -4.2
G140A U144A | -3.68
A142G U146C | -3.25
G140U | -2.62
G140C | -3.16
U145C U146G | 0.121
G141A U144C | -3.08
G143A U151G | ≤ -4.2

Variant | polymerase ribozyme fitness (log ratio)
U144C A150C | -4.19
U146G A150G G152A | -1.84
U146C | 0.00807
U146G | -0.513
U146A | -0.305
U148G U151A | -3.95
G140A G143U | ≤ -4.2
U151C | -2.78
U151A | -3.44
U151G | -3.49
A142G A147U | -0.49
G141A C149G | -4.13
G141C A150G | -3.78
G140U A147U | -2.9
G143C U145G | -1.8
C149G | -2.78
C149A | -3.33
C149U | -0.847
U145G U151G | -4.07
G141U G143A | -2.79
